Source: US20090075925A1, “Methods and Compositions Related to APOBEC-1 Expression” (priority 2006, published 2009)

B1: CIAP: Calf Intestinal Alkaline Phosphatase (protein, UniProt P19111 20-506, looked up)
Intestinal-type alkaline …: LVPVEEEDPAFWNRQAAQALDVAKKLQPIQTAAKNVILFLGDGMGVPTVTATRILKGQMNGKLGPETPLAMDQFPYVALSKTYNVDRQVPDSAGTATAYLCGVKGNYRTIGVSAAARYNQCKTTRGNEVTSVMNRAKKAGKSVGVVTTTRVQHASPAGAYAHTVNRNWYSDADLPADAQMNGCQDIAAQLVNNMDIDVILGGGRKYMFPVGTPDPEYPDDASVNGVRKRKQNLVQAWQAKHQGAQYVWNRTALLQAADDSSVTHLMGLFEPADMKYNVQQDHTKDPTLQEMTEVALRVVSRNPRGFYLFVEGGRIDHGHHDDKAYMALTEAGMFDNAIAKANELTSELDTLILVTADHSHVFSFGGYTLRGTSIFGLAPSKALDSKSYTSILYGNGPGYALGGGSRPDVNDSTSEDPSYQQQAAVPQASETHGGEDVAVFARGPQAHLVHGVEEETFVAHIMAFAGCVEPYTDCNLPAPTTATSIPD
B2: ACF: APOBEC-1 Complementation Factor (protein, UniProt Q923K9 1-594, looked up)
APOBEC1 complementation factor: MESNHKSGDGLSGTQKEAALRALVQRTGYSLVQENGQRKYGGPPPGWDTTPPERGCEIFIGKLPRDLFEDELIPLCEKIGKIYEMRMMMDFNGNNRGYAFVTFSNKQEAKNAIKQLNNYEIRNGRLLGVCASVDNCRLFVGGIPKTKKREEILSEMKKVTEGVVDVIVYPSAADKTKNRGFAFVEYESHRAAAMARRRLLPGRIQLWGHPIAVDWAEPEVEVDEDTMSSVKILYVRNLMLSTSEEMIEKEFNSIKPGAVERVKKIRDYAFVHFSNREDAVEAMKALNGKVLDGSPIEVTLAKPVDKDSYVRYTRGTGGRNTMLQEYTYPLSHVYDPTTTYLGAPVFYTPQAYAAIPSLHFPATKGHLSNRALIRTPSVREIYMNVPVGAAGVRGLGGRGYLAYTGLGRGYQVKGDKRQDKLYDLLPGMELTPMNTISLKPQGVKLAPQILEEICQKNNWGQPVYQLHSAIGQDQRQLFLYKVTIPALASQNPAIHPFTPPKLSAYVDEAKRYAAEHTLQTLGIPTEGGDAGTTAPTATSATVFPGYAVPSATAPVSTAQLKQAVTLGQDLAAYTTYEVYPTFAVTTRGDGYGTF

Assays:
[1] = target: T1, ACF (Rattus norvegicus, UniProt Q923K9); assay: removal of 32P label from immunoprecipitated hepatic ACF; assay type: biochemical; settings: in vivo labeled rat hepatic nuclear extract
T1 construct: from tissue; host or cells: rat liver nuclear extract (27S gradient fractions)
T1 sequence (Q923K9 1-586 isoform Q923K9-2): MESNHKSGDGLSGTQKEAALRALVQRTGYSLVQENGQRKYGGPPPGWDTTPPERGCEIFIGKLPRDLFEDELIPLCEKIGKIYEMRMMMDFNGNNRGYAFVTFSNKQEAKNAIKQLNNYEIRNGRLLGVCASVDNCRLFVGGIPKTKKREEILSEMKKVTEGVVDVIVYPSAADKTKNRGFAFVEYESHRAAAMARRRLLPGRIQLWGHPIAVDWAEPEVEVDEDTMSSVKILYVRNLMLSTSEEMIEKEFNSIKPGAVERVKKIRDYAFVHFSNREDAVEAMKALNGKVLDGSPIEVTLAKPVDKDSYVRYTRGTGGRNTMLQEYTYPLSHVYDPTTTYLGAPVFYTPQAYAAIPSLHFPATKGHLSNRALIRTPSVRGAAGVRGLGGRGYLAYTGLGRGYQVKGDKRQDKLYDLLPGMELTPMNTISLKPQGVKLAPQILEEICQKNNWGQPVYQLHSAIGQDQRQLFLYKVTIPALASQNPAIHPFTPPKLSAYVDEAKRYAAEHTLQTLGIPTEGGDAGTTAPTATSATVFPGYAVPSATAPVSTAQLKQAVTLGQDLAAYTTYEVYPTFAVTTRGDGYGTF
Description: ACF is a phosphoprotein. Previous studies using site-directed mutagenesis of APOBEC-1 and overexpression of protein kinase Co implicated phosphorylation of APOBEC-1 as a mechanism for activating apoB mRNA editing (Chen et al. (2001)). To evaluate whether endogenous ACF is phosphorylated in vivo, rats were radiolabeled for 4 hours via an intraperitoneal injection of orthophosphoric acid in HEPES-buffered saline. Following extensive digestion of hepatic nuclear extracts with DNase I and RNase T1 to remove radiolabeled nucleic acids, ACF was immunoprecipitated with the CT antibody, resolved by SDS-PAGE, transferred to nitrocellulose and analyzed by autoradiography as well as immunoblotting with ACF NT antibody (FIG. 3A). A single band was detected by autoradiography that super-imposed with ACF-specific immunoblot reactivity. Greater than 90% of the ^32P-label was removed by CIAP treatment (FIG. 3B), consistent with the post-translational phosphorylation of protein. […] The amino acid sequence of rat ACF was predicted contain 23 serine/threonine and 7 tyrosine high probability sites of phosphorylation (http://www.cbs.dtu.dk/services.NetPhos and http://expasy.org/tools/scanprosite). […] Nuclear ACF was detected as two predominant charge isoforms (FIG. 3B). […]

[2] = test system: apoB mRNA; assay: ultraviolet light cross-linking of ACF (p66) to apoB RNA in liver nuclear extract; assay type: binding, rat
Description: (§1) In vitro editing reactions and RNA binding assays. In vitro editing reactions and quantitative poisoned-primer extension assays were carried out using 80 μg of extract proteins as previously described (Shah et al. (1993), Smith, H. C. (1998)). ApoB RNA binding assays were performed by subjecting nuclear extract (80 μg) to in vitro editosome assembly and ultraviolet crosslinking (Smith, H. C. (1998)).
To further investigate the role of phosphorylation, rat liver nuclear extract was treated with CIAP and assayed for in vitro apoB RNA editing activity. […] Phosphorylation can play a role in the subcellular localization and/or stability of ACF. […] These yields were achieved by treatment of rat primary hepatocytes (40 T25 flasks) with 0.45% ethanol for four hours in the presence of 70 mCi of total inorganic ^32P followed by immunoprecipitation of ACF64/65 (FIG. 32). Two IPs were resolved by PAGE (FIG. 32, Coomassie) and ACF64/65 identified (western).

[3] = test system: ACF/APOBEC-1 complexes; assay: co-immunoprecipitation of HA-tagged APOBEC-1 with ACF from McArdle nuclear extracts; assay type: biochemical, rat; settings: nuclear extracts treated with CIAP
Description: Nuclear extracts were immunoprecipitated with ACF CT antibody and processed as described in FIG. 1. For CIAP treatment extracts were adjusted to 5 mM MgCl2, 3 mM CaCl2, 0.1 mM ZnCl2 and 25% glycerol and then incubated with 5U CIAP for 1 hour at 30° C. Control extracts were treated similarly but lacked phosphatase. The ratios of APOBEC-1:ACF were determined by scanning densitometry and quantitation using ImageJ Software. HC, position of 1g heavy chain. (n=4, standard deviation+/−0.2). […] In vitro editing activity was determined using the poisoned-primer extension assay. The percent editing was quantified by PhoshorImager (Molecular Dynamics) scanning densitometry. Data shown is representative of 3 independent experiments. *Statistical significance was determined to be P≦0.01 by unpaired t-test relative to control. […] Quantitation of relative amounts of ACF bound was performed using PhoshorImager scanning densitometry. Data shown are representative of 4 independent experiments. *Statistical significance was determined to be P≦0.01 by unpaired t-test relative to control.
Given the selective recovery of APOBEC-1 with nuclear ACF (FIG. 1), the interaction between ACF and APOBEC-1 was explored in nuclear extracts was mediated by post-translational modifications such as protein phosphorylation.

[4] = test system: apoB mRNA editing; assay: in vitro apoB mRNA editing activity of nuclear extract after phosphatase treatment; assay type: biochemical, rat
Description: as §1
As an interaction between ACF and APOBEC-1 is critical for editing activity (Metha et al. Mol Cell Biol 20:1846-54 (2000)) the effect of alkaline phosphatase treatment on in vitro editing activity of hepatocyte extracts was investigated.

[5] = target: mooring sequence; settings: read-out: Kd for the mooring sequence / apoB mRNA; cited from earlier work

Molecule	32P-label removed from ACF [1]	ultraviolet light cross-linking of ACF to apoB mRNA ([2]; 1, 5 or 10 U)	increase in yield of cross-linked p66 compared to control ([2]; highest CIAP treatment) [%]	reduction in HA-tagged APOBEC-1 recovered with immunoprecipitated ACF [3] [fold]	inhibition of apoB mRNA editing activity relative to control extracts ([4]; CIAP-treated nuclear extract) [fold]	inhibition of in vitro editing activity compared to buffer-treated control extracts ([4]; rat liver nuclear extracts) [%]	Kd [5] [nM]
B1	Greater than 90%	did not significantly increase ultraviolet light cross-linking of ACF to apoB mRNA	40	3	2.5	> 50	
B2							8
